Experimental findings from patent publication US20200317791A1 (Janssen / Centocor, published 2020) are described below.

For experiment [1], the target named is T1, CW6W3.ECO.PP.002/.003 (rhHLA-Cw6/ARF) (human).
T1 construct: also called rhHLA-Cw6/ARFN; rHLA-Cw6/ARFN
The experiment is described as follows: SPR ProteOn XPR36, captured mAb; valid kinetic fit.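 Further: Anti-HLA-Cw6 mAbs captured at 100–200 RU, antigen flowed in PBST, 180 s association and 900 s dissociation, double-referenced sensorgrams globally fit to a 1:1 Langmuir model.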
Procedure: (§1) Anti-HLA-Cw6 mAbs were captured at ligand densities ranging from 100 to 200 response units. […] All analyses were conducted in PBST at 100 μL/min flow rate with association and dissociation times of 180 and 900 seconds, respectively. […] Analyte raw data was double referenced by subtraction of the blank surface response at “interspots” (to correct for refractive index changes and any non-specific interactions with the chip surface) and of the buffer blank response (to correct for any baseline drift resulting from mAb dissociation over time). Referenced data were globally fit to a 1:1 simple Langmuir binding model. Kinetic parameters were calculated for each mAb/antigen combination or interaction using Bio-Rad ProteOn Manager software (version 3.1.0.6) with parameter (kon, koff, Rmax) scope and type set to “Grouped” and “Fitted,” respectively.

For experiment [2], the target named is T2, A24_A*24:02 (human, UniProt A*24:02).
T2 construct: on LABScreen bead; also called HLA-A*24:02 (LABScreen class I bead)
T2 heavy chain: not shown
Briefly: LABScreen beads.

Experiment [3] has as its target T3, CW6W32 (rhHLA-Cw6/TRAT) (human).
T3 construct: also called CW6W32.009; rHLA-Cw6/TRAT
Briefly: SPR ProteOn XPR36, captured mAb.
Procedure: as §1

For experiment [4], the target named is T4, CW6W36 (rhHLA-Cw6/ADAMTSL5) (human).
T4 construct: also called CW6W36.002; rHLA-Cw6/ADAMTSL5
The experiment is described as follows: SPR ProteOn XPR36, captured mAb.
Procedure: as §1

The target in experiment [5] is T3, CW6W32 (rhHLA-Cw6/TRAT). The experiment is described as follows: SPR ProteOn XPR36, captured mAb; valid kinetic fit.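 Further: Anti-HLA-Cw6 mAbs captured at 100–200 RU, antigen flowed in PBST, 180 s association and 900 s dissociation, double-referenced sensorgrams globally fit to a 1:1 Langmuir model.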
Procedure: as §1
Experiment [6] concerns the target T4, CW6W36 (rhHLA-Cw6/ADAMTSL5). The experiment is described as follows: SPR ProteOn XPR36, captured mAb; valid kinetic fit, range of two replicates (second end).
Procedure: as §1
Experiment [7] shares this target. Briefly: SPR Biacore 8K, captured mAb; Acceptable fit. A general note: In SPR one partner is held on a chip, and binding of the other changes the refractive index at the surface.
Source text: To further characterize the ability of the antibodies to differentiate between class I MHC molecules.
Experiment [8] concerns the target T2, A24_A*24:02. The experiment is described as follows: LABScreen beads.
In experiment [9] the target is T1, CW6W3.ECO.PP.002/.003 (rhHLA-Cw6/ARF). The experiment is described as follows: SPR ProteOn XPR36, captured mAb.
Procedure: as §1
Experiment [10] concerns the target T4, CW6W36 (rhHLA-Cw6/ADAMTSL5). The experiment is described as follows: SPR ProteOn XPR36, captured mAb; valid kinetic fit, range of two replicates.
Procedure: as §1
The target in experiment [11] is T3, CW6W32 (rhHLA-Cw6/TRAT). Briefly: SPR Biacore 8K, captured mAb; Kinetic fit not valid.
The next experiment concerns the target CW6W35.001. Described as above.
Another experiment addresses CW6W53.001. Described as above.
In the next experiment the target is CW6W54.001. The description is as above.
Another experiment concerns the target CW6W51.001. Described as above.

Where a chain is given by its changes, count along the chain named. Like-named read-outs stand apart in the source and are kept apart here.

B1: CW6B188 (antibody, V domains shown)
VH: EVQLVESGGGLVQPGGSLRLSCAASGFTFTNYWMTWVRQAPGKGLEWVANIKQSGNEKYYVDSVKGRFTISRDNAKNSLYLQMNSLRAEDTAVYYCARTLYEWELEPFDYWGQGTLVTVSS
VL: SYVLTQPPSVSVAPGQTARITCGGNRIGSKNLHWYQQKPGQAPVLVVYDDSDRPSGIPERFSGSNSGSTATLTISRVEAGDEADYYCQVWDSSRDHVVFGGGTKLTVL
notes: also called CW6B188.001; CW6M188 (DNA ID)
Usually Kd stands for the equilibrium constant for the complex coming apart. One may read the koff as the rate constant with which the complex falls apart. The low end stands for a long-lived complex, the high end for a short-lived complex. As usually defined, the kon is the second-order rate constant of association. In [1], B1 showed a Kd of 0.12 nM, a koff of 0.000574 s⁻¹ and a kon of 5.66e+06 M⁻¹ s⁻¹. Moreover, in the experiment with A24_A*24:02 [2], the binding result was “no binding (tested: 10 µg/ml)”. For the same molecule, in the experiment with CW6W32 (rhHLA-Cw6/TRAT) [3], the binding result was “binds”. Also, in [4], the binding result is reported as “binds”.

B2: CW6B130 (antibody, V domains shown)
VH: QLQLQESGPGLVKPSETLSLTCTVSGASISSINYYWGWIRQPPGKGLEWIGSFYYSGNTYYNPSLKSRVTISVDTSKNYFSLKLNSVTAADTAVYYCAREYYDSSGYYPFEPWGQGTLVTVSS
VL: B1 VL with N25D, R26N, K30E, N31S, L32V, S51T, N65K, S68T, R76W, R94S
notes: also called CW6B130.001; CW6M130 (DNA ID)
As to B2, the dissociation constant Kd with CW6W32 (rhHLA-Cw6/TRAT) [5] stood at 0.27 nM; in [6] it was 0.0713 nM; in experiment [7], 0.272 nM; in experiment [10], 0.0586 nM; with CW6W32 (rhHLA-Cw6/TRAT) [11], 0.622 nM; with CW6W35.001 it was 6.04 nM. For the same molecule, the results for the Kd with CW6W53.001, with CW6W54.001 and with CW6W51.001 were 0.205 nM, 0.0828 nM and 0.571 nM, respectively. For the same molecule, the koff was 0.00272 s⁻¹ with CW6W32 (rhHLA-Cw6/TRAT) [5]; 0.00097 s⁻¹ in experiment [6]; 0.00184 s⁻¹ in [7]; 0.00124 s⁻¹ in experiment [10]; 0.00509 s⁻¹ with CW6W32 (rhHLA-Cw6/TRAT) [11]; 0.0101 s⁻¹ in the experiment with CW6W35.001. Moreover, the koff turned out to be 0.0054 s⁻¹ with CW6W53.001, 0.00204 s⁻¹ with CW6W54.001 and 0.000389 s⁻¹ with CW6W51.001. For the same molecule, the kon in the experiment with CW6W32 (rhHLA-Cw6/TRAT) [5] was found to be 1.03e+07 M⁻¹ s⁻¹; in experiment [6], 1.75e+07 M⁻¹ s⁻¹; in experiment [7], 6.77e+06 M⁻¹ s⁻¹; in experiment [10], 1.66e+07 M⁻¹ s⁻¹; in the experiment with CW6W32 (rhHLA-Cw6/TRAT) [11] it was 8.2e+06 M⁻¹ s⁻¹; with CW6W35.001, 1.67e+06 M⁻¹ s⁻¹. For the same molecule, the values for the kon with CW6W53.001, in the experiment with CW6W54.001 and with CW6W51.001 were 2.63e+07 M⁻¹ s⁻¹, 2.47e+07 M⁻¹ s⁻¹ and 681000 M⁻¹ s⁻¹, respectively. Also, the binding result with A24_A*24:02 [8] is given as “no binding (tested: 10 µg/ml)”; in experiment [9] it was “binds”.
